Measurements as given in patent US20210301295A1.

Target: 6×His tag-AVI tag-DPP4 fusion protein, site-directed biotinylated and labeled with color latex throu (human), P27487
Details: remark: other sources report otherwise

B1: Recombinant S1 protein of MERS-CoV, K9N5Q8 18-725 (ligand)
chain: YVDVGPDSVKSACIEVDIQQTFFDKTWPRPIDVSKADGIIYPQGRTYSNITITYQGLFPYQGDHGDMYVYSAGHATGTTPQKLFVANYSQDVKQFANGFVVRIGAAANSTGTVIISPSTSATIRKIYPAFMLGSSVGNFSDGKMGRFFNHTLVLLPDGCGTLLRAFYCILEPRSGNHCPAGNSYTSFATYHTPATDCSDGNYNRNASLNSFKEYFNLRNCTFMYTYNITEDEILEWFGITQTAQGVHLFSSRYVDLYGGNMFQFATLPVYDTIKYYSIIPHSIRSIQSDRKAWAAFYVYKLQPLTFLLDFSVDGYIRRAIDCGFNDLSQLHCSYESFDVESGVYSVSSFEAKPSGSVVEQAEGVECDFSPLLSGTPPQVYNFKRLVFTNCNYNLTKLLSLFSVNDFTCSQISPAAIASNCYSSLILDYFSYPLSMKSDLSVSSAGPISQFNYKQSFSNPTCLILATVPHNLTTITKPLKYSYINKCSRFLSDDRTEVPQLVNANQYSPCVSIVPSTVWEDGDYYRKQLSPLEGGGWLVASGSTVAMTEQLQMGFGITVQYGTDTNSVCPKLEFANDTKIASQLGNCVEYSLYGVSGRGVFQNCTAVGVRQQRFVYDAYQNLVGYYSDDGNYYCLRACVSVPVSVIYDKETKTHATLFGSVACEHISSTMSQYSRSTRSMLKRRDSTYGPLQTPVGCVLGLVNSSLFVE
sensitivity of the test strip (lowest positive concentration): 10 nM
